Measurements taken from IntAct's records for PubMed 31515488.

B1: Pre-mRNA-splicing factor SPF27 (Homo sapiens), O75934 (parent)
chain: MAGTGLVAGEVVVDALPYFDQGYEAPGVREAAAALVEEETRRYRPTKNYLSYLTAPDYSAFETDIMRNEFERLAARQPIELLSMKRYELPAPSSGQKNDITAWQECVNNSMAQLEHQAVRIENLELMSQHGCNAWKVYNENLVHMIEHAQKELQKLRKHIQDLNWQRKNMQLTAGSKLREMESNWVSLVSKNYEIERTIVQLENEIYQIKQQHGEANKENIRQDF
B2: Proteasome subunit beta type-1 (Homo sapiens), P20618 (parent)
chain: MLSSTAMYSAPGRDLGMEPHRAAGPLQLRFSPYVFNGGTILAIAGEDFAIVASDTRLSEGFSIHTRDSPKCYKLTDKTVIGCSGFHGDCLTLTKIIEARLKMYKHSNNKAMTTGAIAAMLSTILYSRRFFPYYVYNIIGGLDEEGKGAVYSFDPVGSYQRDSFKAGGSASAMLQPLLDNQVGFKNMQNVEHVPLSLDRAMRLVKDVFISAAERDVYTGDALRICIVTKEGIREETVSLRKD
B3: Chondroitin sulfate N-acetylgalactosaminyltransferase 2 (Homo sapiens), Q8N6G5 (parent)
chain: MPRRGLILHTRTHWLLLGLALLCSLVLFMYLLECAPQTDGNASLPGVVGENYGKEYYQALLQEQEEHYQTRATSLKRQIAQLKQELQEMSEKMRSLQERRNVGANGIGYQSNKEQAPSDLLEFLHSQIDKAEVSIGAKLPSEYGVIPFESFTLMKVFQLEMGLTRHPEEKPVRKDKRDELVEVIEAGLEVINNPDEDDEQEDEEGPLGEKLIFNENDFVEGYYRTERDKGTQYELFFKKADLTEYRHVTLFRPFGPLMKVKSEMIDITRSIINIIVPLAERTEAFVQFMQNFRDVCIHQDKKIHLTVVYFGKEGLSKVKSILESVTSESNFHNYTLVSLNEEFNRGRGLNVGARAWDKGEVLMFFCDVDIYFSAEFLNSCRLNAEPGKKVFYPVVFSLYNPAIVYANQEVPPPVEQQLVHKKDSGFWRDFGFGMTCQYRSDFLTIGGFDMEVKGWGGEDVHLYRKYLHGDLIVIRTPVPGLFHLWHEKRCADELTPEQYRMCIQSKAMNEASHSHLGMLVFREEIETHLHKQAYRTNSEAVG
partner: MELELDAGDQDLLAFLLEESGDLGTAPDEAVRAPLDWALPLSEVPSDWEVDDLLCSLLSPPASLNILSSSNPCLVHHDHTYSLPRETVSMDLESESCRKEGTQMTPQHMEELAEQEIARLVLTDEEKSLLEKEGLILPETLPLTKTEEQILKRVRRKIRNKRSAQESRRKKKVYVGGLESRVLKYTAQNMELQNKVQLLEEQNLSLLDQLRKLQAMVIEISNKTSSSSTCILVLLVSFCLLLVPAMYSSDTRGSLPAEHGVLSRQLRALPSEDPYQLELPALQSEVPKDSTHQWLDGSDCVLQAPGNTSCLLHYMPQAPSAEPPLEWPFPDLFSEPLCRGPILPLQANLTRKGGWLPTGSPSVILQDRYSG
B4: DNA mismatch repair protein Mlh1 (Homo sapiens), P40692 (parent)
chain: MSFVAGVIRRLDETVVNRIAAGEVIQRPANAIKEMIENCLDAKSTSIQVIVKEGGLKLIQIQDNGTGIRKEDLDIVCERFTTSKLQSFEDLASISTYGFRGEALASISHVAHVTITTKTADGKCAYRASYSDGKLKAPPKPCAGNQGTQITVEDLFYNIATRRKALKNPSEEYGKILEVVGRYSVHNAGISFSVKKQGETVADVRTLPNASTVDNIRSIFGNAVSRELIEIGCEDKTLAFKMNGYISNANYSVKKCIFLLFINHRLVESTSLRKAIETVYAAYLPKNTHPFLYLSLEISPQNVDVNVHPTKHEVHFLHEESILERVQQHIESKLLGSNSSRMYFTQTLLPGLAGPSGEMVKSTTSLTSSSTSGSSDKVYAHQMVRTDSREQKLDAFLQPLSKPLSSQPQAIVTEDKTDISSGRARQQDEEMLELPAPAEVAAKNQSLEGDTTKGTSEMSEKRGPTSSNPRKRHREDSDVEMVEDDSRKEMTAACTPRRRIINLTSVLSLQEEINEQGHEVLREMLHNHSFVGCVNPQWALAQHQTKLYLLNTTKLSEELFYQILIYDFANFGVLRLSEPAPLFDLAMLALDSPESGWTEEDGPKEGLAEYIVEFLKKKAEMLADYFSLEIDEEGNLIGLPLLIDNYVPPLEGLPIFILRLATEVNWDEEKECFESLSKECAMFYSIRKQYISEESTLSGQQSEVPGSIPNSWKWTVEHIVYKALRSHILPPKHFTEDGNILQLANLPDLYKVFERC
partner: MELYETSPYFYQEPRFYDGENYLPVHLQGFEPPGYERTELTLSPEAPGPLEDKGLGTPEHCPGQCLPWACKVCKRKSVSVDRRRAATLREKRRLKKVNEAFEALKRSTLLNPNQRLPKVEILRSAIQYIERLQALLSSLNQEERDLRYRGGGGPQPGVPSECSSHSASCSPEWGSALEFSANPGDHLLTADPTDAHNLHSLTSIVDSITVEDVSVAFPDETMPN
B5: Ras-related protein Rab-39B (Homo sapiens), Q96DA2 (parent)
chain: MEAIWLYQFRLIVIGDSTVGKSCLIRRFTEGRFAQVSDPTVGVDFFSRLVEIEPGKRIKLQIWDTAGQERFRSITRAYYRNSVGGLLLFDITNRRSFQNVHEWLEETKVHVQPYQIVFVLVGHKCDLDTQRQVTRHEAEKLAAAYGMKYIETSARDAINVEKAFTDLTRDIYELVKRGEITIQEGWEGVKSGFVPNVVHSSEEVVKSERRCLC
B6: MYG1 exonuclease (Homo sapiens), Q9HB07 (parent)
chain: MGHRFLRGLLTLLLPPPPLYTRHRMLGPESVPPPKRSRSKLMAPPRIGTHNGTFHCDEALACALLRLLPEYRDAEIVRTRDPEKLASCDIVVDVGGEYDPRRHRYDHHQRSFTETMSSLSPGKPWQTKLSSAGLIYLHFGHKLLAQLLGTSEEDSMVGTLYDKMYENFVEEVDAVDNGISQWAEGEPRYALTTTLSARVARLNPTWNHPDQDTEAGFKRAMDLVQEEFLQRLDFYQHSWLPARALVEEALAQRFQVDPSGEIVELAKGACPWKEHLYHLESGLSPPVAIFFVIYTDQAGQWRIQCVPKEPHSFQSRLPLPEPWRGLRDEALDQVSGIPGCIFVHASGFIGGHRTREGALSMARATLAQRSYLPQIS
B7: Protein DDI1 homolog 1 (Homo sapiens), Q8WTU0 (parent)
chain: MLITVYCVRRDLSEVTFSLQVSPDFELRNFKVLCEAESRVPVEEIQIIHMERLLIEDHCSLGSYGLKDGDIVVLLQKDNVGPRAPGRAPNQPRVDFSGIAVPGTSSSRPQHPGQQQQRTPAAQRSQGLASGEKVAGLQGLGSPALIRSMLLSNPHDLSLLKERNPPLAEALLSGSLETFSQVLMEQQREKALREQERLRLYTADPLDREAQAKIEEEIRQQNIEENMNIAIEEAPESFGQVTMLYINCKVNGHPLKAFVDSGAQMTIMSQACAERCNIMRLVDRRWAGVAKGVGTQRIIGRVHLAQIQIEGDFLQCSFSILEDQPMDMLLGLDMLRRHQCSIDLKKNVLVIGTTGTQTYFLPEGELPLCSRMVSGQDESSDKEITHSVMDSGRKEH
partner: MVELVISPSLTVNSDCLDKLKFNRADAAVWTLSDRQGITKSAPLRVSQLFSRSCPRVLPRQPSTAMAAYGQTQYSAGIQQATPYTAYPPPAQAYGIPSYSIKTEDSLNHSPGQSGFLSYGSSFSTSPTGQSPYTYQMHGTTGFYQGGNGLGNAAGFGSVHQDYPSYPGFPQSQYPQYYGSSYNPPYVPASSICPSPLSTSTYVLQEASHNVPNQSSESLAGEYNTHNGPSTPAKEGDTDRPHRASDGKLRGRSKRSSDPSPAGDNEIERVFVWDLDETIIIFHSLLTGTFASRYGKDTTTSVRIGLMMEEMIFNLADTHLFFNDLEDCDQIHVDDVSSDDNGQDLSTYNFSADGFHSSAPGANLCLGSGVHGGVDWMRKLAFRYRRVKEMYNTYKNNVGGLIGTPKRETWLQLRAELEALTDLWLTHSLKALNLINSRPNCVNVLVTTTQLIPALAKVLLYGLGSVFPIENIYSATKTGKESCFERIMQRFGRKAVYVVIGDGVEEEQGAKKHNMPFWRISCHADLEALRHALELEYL
B8: Zinc finger protein 473 (Homo sapiens), Q8WTR7 (parent)
chain: MAEEFVTLKDVGMDFTLGDWEQLGLEQGDTFWDTALDNCQDLFLLDPPRPNLTSHPDGSEDLEPLAGGSPEATSPDVTETKNSPLMEDFFEEGFSQEIIEMLSKDGFWNSNFGEACIEDTWLDSLLGDPESLLRSDIATNGESPTECKSHELKRGLSPVSTVSTGEDSMVHNVSEKTLTPAKSKEYRGEFFSYSDHSQQDSVQEGEKPYQCSECGKSFSGSYRLTQHWITHTREKPTVHQECEQGFDRNASLSVYPKTHTGYKFYVCNEYGTTFSQSTYLWHQKTHTGEKPCKSQDSDHPPSHDTQPGEHQKTHTDSKSYNCNECGKAFTRIFHLTRHQKIHTRKRYECSKCQATFNLRKHLIQHQKTHAAKTTSECQECGKIFRHSSLLIEHQALHAGEEPYKCNERGKSFRHNSTLKIHQRVHSGEKPYKCSECGKAFHRHTHLNEHRRIHTGYRPHKCQECVRSFSRPSHLMRHQAIHTAEKPYSCAECKETFSDNNRLVQHQKMHTVKTPYECQECGERFICGSTLKCHESVHAREKQGFFVSGKILDQNPEQKEKCFKCNKCEKTFSCSKYLTQHERIHTRGVKPFECDQCGKAFGQSTRLIHHQRIHSRVRLYKWGEQGKAISSASLIKLQSFHTKEHPFKCNECGKTFSHSAHLSKHQLIHAGENPFKCSKCDRVFTQRNYLVQHERTHARKKPLVCNECGKTFRQSSCLSKHQRIHSGEKPYVCDYCGKAFGLSAELVRHQRIHTGEKPYVCQECGKAFTQSSCLSIHRRVHTGEKPYRCGECGKAFAQKANLTQHQRIHTGEKPYSCNVCGKAFVLSAHLNQHLRVHTQETLYQCQRCQKAFRCHSSLSRHQRVHNKQQYCL

Variants of: B1
Details: with itf2_human TCF4, P15884
Sequence of itf2_human TCF4, P15884 (P15884 whole entry): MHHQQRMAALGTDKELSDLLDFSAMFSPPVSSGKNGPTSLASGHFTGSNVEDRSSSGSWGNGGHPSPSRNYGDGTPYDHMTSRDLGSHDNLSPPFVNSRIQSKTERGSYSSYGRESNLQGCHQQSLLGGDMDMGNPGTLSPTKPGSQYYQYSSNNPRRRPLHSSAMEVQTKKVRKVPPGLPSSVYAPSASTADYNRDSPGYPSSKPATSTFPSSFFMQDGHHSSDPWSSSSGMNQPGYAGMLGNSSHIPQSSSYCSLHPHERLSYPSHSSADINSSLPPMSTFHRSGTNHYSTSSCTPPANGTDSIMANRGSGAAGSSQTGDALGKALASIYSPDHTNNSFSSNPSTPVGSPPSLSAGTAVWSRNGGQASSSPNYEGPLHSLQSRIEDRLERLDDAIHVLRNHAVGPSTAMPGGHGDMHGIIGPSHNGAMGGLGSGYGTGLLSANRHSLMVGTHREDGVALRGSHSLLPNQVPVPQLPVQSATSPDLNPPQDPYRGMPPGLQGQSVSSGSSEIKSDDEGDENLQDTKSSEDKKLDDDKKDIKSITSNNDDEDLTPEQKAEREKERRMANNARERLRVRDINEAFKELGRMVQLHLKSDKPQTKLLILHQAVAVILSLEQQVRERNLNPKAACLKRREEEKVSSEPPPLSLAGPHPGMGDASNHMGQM

Row | Variant | effect of a mutation on the interaction
1 | N139S | with no effect

Variants of: B1
Details: with hgs_human HGS

Row | Variant | effect of a mutation on the interaction
2 | N139S | with no effect

Variants of: B1
Details: with ikzf3_human IKZF3, Q9UKT9
Sequence of ikzf3_human IKZF3, Q9UKT9 (Q9UKT9 whole entry): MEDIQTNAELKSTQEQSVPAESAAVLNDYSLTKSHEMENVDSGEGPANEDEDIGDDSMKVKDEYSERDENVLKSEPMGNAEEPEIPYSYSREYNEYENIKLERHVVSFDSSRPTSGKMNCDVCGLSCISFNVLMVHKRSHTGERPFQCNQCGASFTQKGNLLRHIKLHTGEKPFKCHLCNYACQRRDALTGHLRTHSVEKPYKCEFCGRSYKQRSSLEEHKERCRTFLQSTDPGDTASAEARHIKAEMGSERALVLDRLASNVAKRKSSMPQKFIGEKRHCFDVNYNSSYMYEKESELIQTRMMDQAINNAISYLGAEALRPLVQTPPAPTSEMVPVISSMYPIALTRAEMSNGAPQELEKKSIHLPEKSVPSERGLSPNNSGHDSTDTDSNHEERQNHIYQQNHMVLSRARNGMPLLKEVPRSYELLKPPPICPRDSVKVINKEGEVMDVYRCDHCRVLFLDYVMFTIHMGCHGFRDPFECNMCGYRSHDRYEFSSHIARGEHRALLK

Row | Variant | effect of a mutation on the interaction
3 | N139S | with no effect

Variants of: B2
Details: with KRT15, P19012
Sequence of KRT15, P19012 (P19012 whole entry): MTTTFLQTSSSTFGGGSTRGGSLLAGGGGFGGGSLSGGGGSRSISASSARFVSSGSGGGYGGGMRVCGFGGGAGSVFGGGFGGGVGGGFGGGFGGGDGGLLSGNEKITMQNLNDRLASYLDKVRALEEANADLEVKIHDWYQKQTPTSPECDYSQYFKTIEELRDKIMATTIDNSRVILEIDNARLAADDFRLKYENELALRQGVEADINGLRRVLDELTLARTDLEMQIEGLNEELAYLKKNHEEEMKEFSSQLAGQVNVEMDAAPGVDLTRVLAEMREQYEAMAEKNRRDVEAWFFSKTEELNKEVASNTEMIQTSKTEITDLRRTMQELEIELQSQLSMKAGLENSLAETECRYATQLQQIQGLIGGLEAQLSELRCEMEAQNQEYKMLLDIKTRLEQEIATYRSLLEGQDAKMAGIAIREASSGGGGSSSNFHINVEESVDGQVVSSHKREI

Row | Variant | effect of a mutation on the interaction
4 | P11A | with no effect

Variants of: B2
Details: with traf1_human TRAF1, Q13077
Sequence of traf1_human TRAF1, Q13077 (Q13077 whole entry): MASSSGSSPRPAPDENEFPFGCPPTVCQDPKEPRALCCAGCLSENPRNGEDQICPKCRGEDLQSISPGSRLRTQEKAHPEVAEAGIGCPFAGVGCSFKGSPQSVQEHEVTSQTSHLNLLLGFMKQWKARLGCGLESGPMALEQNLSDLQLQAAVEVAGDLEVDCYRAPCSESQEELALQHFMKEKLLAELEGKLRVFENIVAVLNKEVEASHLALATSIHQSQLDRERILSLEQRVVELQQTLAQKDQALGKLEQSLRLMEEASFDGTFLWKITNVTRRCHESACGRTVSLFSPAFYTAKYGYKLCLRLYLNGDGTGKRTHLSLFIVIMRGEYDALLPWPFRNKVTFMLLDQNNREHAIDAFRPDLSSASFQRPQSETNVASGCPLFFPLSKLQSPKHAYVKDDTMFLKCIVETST

Row | Variant | effect of a mutation on the interaction
5 | P11A | with no effect

Variants of: B3
Details: with creb3_human CREB3, O43889

Row | Variant | effect of a mutation on the interaction
6 | P479S | with no effect

Variants of: B4
Details: with myog_human MYOG

Row | Variant | effect of a mutation on the interaction
7 | V384D | with no effect
8 | V213M | with no effect
9 | S106N | with no effect
10 | V326A | with no effect
11 | S406N | with no effect
12 | A441T | with no effect

Variants of: B4
Details: with myog_human MYOG
Remark: another data set of the same source

Row | Variant | effect of a mutation on the interaction
13 | R69K | with no effect

Variants of: B5
Details: with rufy1_human RUFY1, Q96T51
Sequence of rufy1_human RUFY1, Q96T51 (Q96T51 whole entry): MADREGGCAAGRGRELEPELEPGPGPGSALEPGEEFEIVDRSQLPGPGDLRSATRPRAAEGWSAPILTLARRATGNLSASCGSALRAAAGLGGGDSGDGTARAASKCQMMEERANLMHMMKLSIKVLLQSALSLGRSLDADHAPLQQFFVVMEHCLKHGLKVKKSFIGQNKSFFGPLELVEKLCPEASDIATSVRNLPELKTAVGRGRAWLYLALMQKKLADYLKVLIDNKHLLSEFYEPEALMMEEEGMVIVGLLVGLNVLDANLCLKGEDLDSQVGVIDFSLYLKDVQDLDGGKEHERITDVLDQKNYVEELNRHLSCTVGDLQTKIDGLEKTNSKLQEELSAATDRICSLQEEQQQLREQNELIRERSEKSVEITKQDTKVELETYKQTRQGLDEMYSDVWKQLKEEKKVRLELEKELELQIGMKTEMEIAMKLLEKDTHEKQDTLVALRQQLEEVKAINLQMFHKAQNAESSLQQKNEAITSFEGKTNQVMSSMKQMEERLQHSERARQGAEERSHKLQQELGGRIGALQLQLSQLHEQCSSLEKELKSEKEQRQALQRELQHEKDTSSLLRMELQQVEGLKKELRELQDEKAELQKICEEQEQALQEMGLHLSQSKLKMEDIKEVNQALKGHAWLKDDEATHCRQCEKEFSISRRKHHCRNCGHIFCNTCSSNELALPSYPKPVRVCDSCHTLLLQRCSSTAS

Row | Variant | effect of a mutation on the interaction
14 | R177S | disrupting interaction strength

Variants of: B6
Details: with atrap_human AGTRAP

Row | Variant | effect of a mutation on the interaction
15 | R188Q | with no effect
16 | R243Q | with no effect

Variants of: B7
Details: with eya2_human EYA2, O00167

Row | Variant | effect of a mutation on the interaction
17 | D323N | with no effect
18 | N228T | with no effect

Variants of: B8
Details: with zn792_human ZNF792, Q3KQV3
Sequence of zn792_human ZNF792, Q3KQV3 (Q3KQV3 whole entry): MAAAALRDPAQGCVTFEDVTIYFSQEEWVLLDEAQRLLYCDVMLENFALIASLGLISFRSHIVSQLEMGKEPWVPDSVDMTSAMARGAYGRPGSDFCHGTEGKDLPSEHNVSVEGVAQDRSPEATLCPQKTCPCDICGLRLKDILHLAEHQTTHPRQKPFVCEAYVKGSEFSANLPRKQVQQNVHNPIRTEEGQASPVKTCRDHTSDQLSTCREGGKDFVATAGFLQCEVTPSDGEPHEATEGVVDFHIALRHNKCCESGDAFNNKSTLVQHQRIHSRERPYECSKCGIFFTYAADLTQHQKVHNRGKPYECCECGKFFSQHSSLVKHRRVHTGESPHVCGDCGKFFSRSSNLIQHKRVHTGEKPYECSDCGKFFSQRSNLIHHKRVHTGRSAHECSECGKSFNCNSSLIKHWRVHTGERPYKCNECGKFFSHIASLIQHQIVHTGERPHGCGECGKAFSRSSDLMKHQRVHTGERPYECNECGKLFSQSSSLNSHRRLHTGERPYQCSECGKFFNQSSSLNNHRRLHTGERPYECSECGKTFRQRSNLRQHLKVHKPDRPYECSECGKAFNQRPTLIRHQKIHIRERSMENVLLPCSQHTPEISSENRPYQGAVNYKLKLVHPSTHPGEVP

Row | Variant | effect of a mutation on the interaction
19 | N82S | with no effect
20 | T164M | with no effect
21 | R605Q | with no effect
22 | S662A | with no effect
23 | E309G | with no effect
24 | Y456H | with no effect
25 | R223C | with no effect

Variants of: B8
Details: with tri41_human TRIM41, Q8WV44

Row | Variant | effect of a mutation on the interaction
26 | N82S | with no effect
27 | S59G | with no effect
28 | T164M | with no effect
29 | T654I | with no effect
30 | S662A | with no effect
31 | E309G | with no effect
32 | Y456H | with no effect
33 | R223C | with no effect

Variants of: B8
Details: with aen_human AEN

Row | Variant | effect of a mutation on the interaction
34 | N82S | with no effect
35 | S59G | with no effect
36 | T164M | with no effect
37 | R605Q | with no effect
38 | S662A | with no effect
39 | E309G | with no effect
40 | Y456H | with no effect
41 | R223C | with no effect

Variants of: B8
Details: with gpt2l_human GPATCH2L

Row | Variant | effect of a mutation on the interaction
42 | S59G | with no effect
43 | R605Q | with no effect
44 | T654I | with no effect
45 | S662A | with no effect
46 | E309G | with no effect
47 | Y456H | with no effect
48 | R223C | with no effect

Variants of: B8
Details: with ntf2_human NUTF2, P61970
Sequence of ntf2_human NUTF2, P61970 (P61970 whole entry): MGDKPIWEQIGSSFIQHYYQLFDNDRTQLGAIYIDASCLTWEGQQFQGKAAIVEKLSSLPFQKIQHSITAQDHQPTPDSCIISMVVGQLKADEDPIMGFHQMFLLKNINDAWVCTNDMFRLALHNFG

Row | Variant | effect of a mutation on the interaction
49 | S59G | with no effect

Variants of: B8
Details: with zn792_human ZNF792, Q3KQV3
Remark: another data set of the same source

Row | Variant | effect of a mutation on the interaction
50 | S59G | with no effect
51 | T654I | with no effect

Variants of: B8
Details: with aen_human AEN
Remark: another data set of the same source

Row | Variant | effect of a mutation on the interaction
52 | T654I | with no effect
